B1: Tyrosine-protein phosphatase non-receptor type 22 (Homo sapiens), Q9Y2R2 (parent)
chain: MDQREILQKFLDEAQSKKITKEEFANEFLKLKRQSTKYKADKTYPTTVAEKPKNIKKNRYKDILPYDYSRVELSLITSDEDSSYINANFIKGVYGPKAYIATQGPLSTTLLDFWRMIWEYSVLIIVMACMEYEMGKKKCERYWAEPGEMQLEFGPFSVSCEAEKRKSDYIIRTLKVKFNSETRTIYQFHYKNWPDHDVPSSIDPILELIWDVRCYQEDDSVPICIHCSAGCGRTGVICAIDYTWMLLKDGIIPENFSVFSLIREMRTQRPSLVQTQEQYELVYNAVLELFKRQMDVIRDKHSGTESQAKHCIPEKNHTLQADSYSPNLPKSTTKAAKMMNQQRTKMEIKESSSFDFRTSEISAKEELVLHPAKSSTSFDFLELNYSFDKNADTTMKWQTKAFPIVGEPLQKHQSLDLGSLLFEGCSNSKPVNAAGRYFNSKVPITRTKSTPFELIQQRETKEVDSKENFSYLESQPHDSCFVEMQAQKVMHVSSAELNYSLPYDSKHQIRNASNVKHHDSSALGVYSYIPLVENPYFSSWPPSGTSSKMSLDLPEKQDGTVFPSSLLPTSSTSLFSYYNSHDSLSLNSPTNISSLLNQESAVLATAPRIDDEIPPPLPVRTPESFIVVEEAGEFSPNVPKSLSSAVKVKIGTSLEWGGTSEPKKFDDSVILRPSKSVKLRSPKSELHQDRSSPPPPLPERTLESFFLADEDCMQAQSIETYSTSYPDTMENSTSSKQTLKTPGKSFTRSKSLKILRNMKKSICNSCPPNKPAESVQSNNSSSFLNFGFANRFSKPKGPRNPPPTWNI

Variants of: B1
Details: with kpcd_human PRKCD

effect of a mutation on the interaction	Variant
decreasing interaction	S35E
